The values that follow come from paper PMC3466254, “Cthrc1, a Novel Circulating Hormone Regulating Metabolism” (PLoS ONE, 2012).

The data set deals with the molecule itself. As to the kind of experiment: non-reducing SDS-PAGE with autoradiography; 1 µl of plasma of Cthrc1 null mice taken 30 min after intra-arterial injection of purified 125I-Cthrc1; SDS-PAGE under non-reducing conditions, autoradiography.

B1: rat Cthrc1 with a C terminal myc/6×His tag, labeled with 125I (natural protein, UniProt Q8CG08 33-245, looked up)
chain: SENPKVKQKALIRQREVVDLYNGMCLQGPAGVPGRDGSPGANGIPGTPGIPGRDGFKGEKGECLRESFEESWTPNYKQCSWSSLNYGIDLGKIAECTFTKMRSNSALRVLFSGSLRLKCRNACCQRWYFTFNGAECSGPLPIEAIIYLDQGSPELNSTINIHRTSSVEGLCEGIGAGLVDVAIWVGTCSDYPKGDASTGWNSVSRIIIEELPK
modifications: labeled with 125I (iodination tubes); residues not stated
notes: Cthrc1 (collagen triple helix repeat containing 1), rat; secreted into the conditioned medium; also called 125I-Cthrc1; 125I-labeled Cthrc1
Regarding B1, the binding result is listed as “binds”.
